Experimental data published in patent US20190023793A1 (Innovent, published 2019).

T1: B7H4 (human) (human, UniProt Q7Z7D3 25-258, limits assumed)
T1 construct: also called PD-L1 family members
T1 sequence (looked up): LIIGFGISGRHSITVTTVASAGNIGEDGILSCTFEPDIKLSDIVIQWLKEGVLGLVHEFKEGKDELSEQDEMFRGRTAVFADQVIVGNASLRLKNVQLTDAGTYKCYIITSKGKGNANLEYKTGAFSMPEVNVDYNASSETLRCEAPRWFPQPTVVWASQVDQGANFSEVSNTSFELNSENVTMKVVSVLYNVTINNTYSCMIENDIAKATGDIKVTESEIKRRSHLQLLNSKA

T2: PD-L2 (human) (human, UniProt Q9BQ51 20-219, limits assumed)
T2 construct: also called PD-L1 family members
T2 sequence (looked up): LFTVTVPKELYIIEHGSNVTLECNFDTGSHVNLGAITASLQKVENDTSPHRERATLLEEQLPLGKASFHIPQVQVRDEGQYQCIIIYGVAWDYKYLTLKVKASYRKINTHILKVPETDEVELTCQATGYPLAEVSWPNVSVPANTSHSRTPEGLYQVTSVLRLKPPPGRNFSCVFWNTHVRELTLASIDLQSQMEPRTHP

T3: B7H3 (human) (human, UniProt Q5ZPR3 29-461, limits assumed)
T3 construct: also called PD-L1 family members
T3 sequence (looked up): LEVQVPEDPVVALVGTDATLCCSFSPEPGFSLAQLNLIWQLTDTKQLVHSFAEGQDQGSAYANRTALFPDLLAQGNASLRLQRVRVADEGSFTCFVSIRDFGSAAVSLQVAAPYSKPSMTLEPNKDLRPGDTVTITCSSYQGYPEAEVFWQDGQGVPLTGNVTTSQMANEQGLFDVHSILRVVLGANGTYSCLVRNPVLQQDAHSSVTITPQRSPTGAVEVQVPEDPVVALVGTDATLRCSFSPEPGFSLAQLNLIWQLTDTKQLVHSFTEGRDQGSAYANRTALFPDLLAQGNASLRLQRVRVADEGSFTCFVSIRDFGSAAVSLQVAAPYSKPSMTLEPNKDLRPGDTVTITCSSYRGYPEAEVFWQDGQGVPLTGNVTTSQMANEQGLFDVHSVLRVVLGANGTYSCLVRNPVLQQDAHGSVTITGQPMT


Columns and labels:
B7H4 (human) = molecular target: T1, B7H4 (human); test: ELISA, antigen coated at 0.5 µg per well, biotinylated nanobody, streptavidin-HRP
Description: (§1) (2) The antigen proteins PD-L1 (human), PD-L1 (rat), PD-L1 (monkey), PD-L2 (human), B7H4 (human), B7H3 (human) were coated: 0.5 μg per well (5 μg/mL, 100 μL), IgG1 was coated as a control, left overnight at 4° C.;
(§2) (4) Each biotinylated nanobodies were diluted to 10 μg/mL, and 100 μL of each was incubated in each well and allowed to react at RT for 1 hour.
(§3) (5) The unbound nanobodies were washed with PBST, 100 μL of streptavidin-HRP (1:1000 dilution) was added, and the resultant was let stand for 1 hour at room temperature.

PD-L2 (human) = molecular target: T2, PD-L2 (human); test: as above
Description: as §1, §2, §3

B7H3 (human) = molecular target: T3, B7H3 (human); test: as above
Description: as §1, §2, §3

[1] = molecular target: T4, PD-L1 (human) antigen protein (human, UniProt Q9NZQ7 19-238, limits assumed); test: SPR, BiaCore T200, antigen immobilized on CM-5 chip, nanobody in five concentrations
T4 construct: also called human PD-L1; immobile phase antigens
T4 sequence (Q9NZQ7 19-238 limits assumed): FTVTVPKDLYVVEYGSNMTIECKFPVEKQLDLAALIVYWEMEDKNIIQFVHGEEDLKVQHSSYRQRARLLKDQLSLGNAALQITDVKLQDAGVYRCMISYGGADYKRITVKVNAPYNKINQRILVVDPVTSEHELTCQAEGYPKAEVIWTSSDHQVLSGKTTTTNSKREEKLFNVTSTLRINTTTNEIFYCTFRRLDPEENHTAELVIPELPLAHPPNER
Description: BiaCore T200 was used for detection. (1) Immobilization: The immobile phase antigens were immobilized on the surface of a CM-5 sensor chip using a carboxy-amino reaction;
(2) Binding: The nanobodies were diluted with HBS buffer to an appropriate concentration (five concentration gradients) to observe the antigen-nanobody binding process;
(4) Analysis of the experimental results.

Row | binding result (B7H4 (human)) | binding result (PD-L2 (human)) | binding result (B7H3 (human)) | Kd [1] [nM] | Binder
1 | no binding (tested: 10 µg/mL) | no binding (tested: 10 µg/mL) | no binding (tested: 10 µg/mL) | 2.34 | PD-L1 Nb-Fc protein (nanobody before humanization fused to IgG1 Fc) (Fc fusion, also called PD-L1 nanobodies; nanobodies before humanization; not shown: IgG1 Fc encoded by the pFUSE-IgG1 vector (Invivogen)) QVQLQESGGGSVQAGGSLRLSCQASAYTISRNSMGWFRQAPGKQREGVAAIESDGSTSYSDSVKGRFTISLGNAKNTLYLEMNSLKPEDTAMYYCAAPKVGLGPRTALGHLAFMTLPALNYWGQGTQVTVSS
2 | no binding (tested: 10 µg/mL) | no binding (tested: 10 µg/mL) | no binding (tested: 10 µg/mL) | 2.26 | humanized PD-L1 nanobody with Fc tag (humanized Nb-Fc) (Fc fusion, also called humanized PD-L1 nanobodies; humanized nanobodies; not shown: IgG1 Fc encoded by the pFUSE-IgG1 vector (Invivogen)) QVQLQESGGGLVQPGGSLRLSCAASAYTISRNSMGWFRQAPGKGLEGVAAIESDGSTSYSDSVKGRFTISLDNSKNTLYLEMNSLRAEDTAVYYCAAPKVGLGPRTALGHLAFMTLPALNYWGQGTLVTVSS
